Where a chain is given by its changes, count along the chain named.

In experiment [1] the target is T1, Human CLDN18.2 (human, UniProt P56856-2 1-261).
T1 construct: whole, on cells; also called human Claudin18.2; hCLDN18.2
The experiment in a line: FACS on SP2/0-hCLDN18.2 cells (FIG. 12).
Protocol: After counting, the SP2/0-hCLDN18.2 cell was resuspended in a flow cytometry buffer, adjusted to the density of 1×10⁶ cells/ml, and then added into V-bottom 96-well plates at 30 μl/well. Primary antibodies with initial working concentration of 80 μg/ml were added at 30 μl/well, and then gradient diluted with the flow cytometry buffer at a four-fold ratio to form 7 gradients. A PBS negative control was set up for each antibody. After inoculation at 4° C. for one hour, the plates were washed once with the flow cytometry buffer. The secondary antibody, i.e., goat F(ab′)2 anti-human IgG-Fc (DyLight® 650) (abcam, Cat #ab98593), was added at 30 μl/well. After inoculation at 4° C. for 30 minutes, the plates were washed twice with the flow cytometry buffer and the cells were shaken dispersedly. The flow cytometry buffer was added at 25 μl/well, and then the cells were ready for FACS on the flow cytometer. In the meanwhile, after counting, the SP2/0-hCLDN18.1 cell was loaded in plates. Primary antibodies with initial working concentration of 10 μg/ml were gradient diluted at a three-fold ratio to form 5 concentration gradients in total. The secondary antibody used was goat F(ab′)2 anti-human IgG-Fc (DyLight® 650) (abcam, Cat #ab98593). Original data were entered into the software GraphPad8.0 for graphing and calculation.

For experiment [2], the target named is T1, Human CLDN18.2. The experiment in a line: FACS, hybridoma culture supernatant on 293T-human CLDN18.2 cells. (In general: A flow cytometer gives signals particle by particle.)
Protocol: (§1) The cells were co-incubated at 4° C. for 1 hour and the plates were washed once with the flow cytometry buffer. A corresponding secondary antibody was added at 30 ul/well and co-incubated at 4° C. for 30 minutes and the plates were then washed with the flow cytometry buffer twice. After the cells were shaken loose, the FACS buffer was added at 25 μl/well, and FACS was then performed on the iQue Screener flow cytometer (purchased from IntelliCyt Company). The mother clones that were positive for CLDN18.2 in the primary sorting were picked for expansion culture in 24-well cell culture plates. Three days later, the cell supernatant was taken for re-sorting by FACS. […] The positive hybridoma mother clones were monocloned using a gradient dilution method. After two to three rounds of subcloning and FACS, a monoclonal hybridoma cell secreting a CLDN18.2-specific antibody was obtained.
Experiment [3] has as its target T1, Human CLDN18.2. The experiment can be described thus: FACS, hybridoma culture supernatant on CHO-human CLDN18.2 cells.
Protocol: as §1
In experiment [4] the target is T2, Cynomolgus monkey CLDN18.2 (cynomolgus monkey).
T2 chain: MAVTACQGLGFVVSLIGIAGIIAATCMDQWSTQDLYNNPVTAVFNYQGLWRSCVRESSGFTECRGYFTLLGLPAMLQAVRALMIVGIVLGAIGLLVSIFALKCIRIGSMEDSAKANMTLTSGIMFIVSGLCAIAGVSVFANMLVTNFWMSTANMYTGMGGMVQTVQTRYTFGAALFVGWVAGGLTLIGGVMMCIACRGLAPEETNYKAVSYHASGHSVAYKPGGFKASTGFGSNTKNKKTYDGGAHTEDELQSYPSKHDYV
The experiment in a line: FACS on 293T-cynomolgus monkey CLDN18.2 cells (FIG. 4).
Protocol: (§2) The species cross-binding activity of the above antigen-binding proteins to mouse CLDN18.2 and cynomolgus monkey CLDN18.2 were tested through FACS on the CytoFLEX flow cytometer (purchased from BECKMAN COULTER Company) using PBS containing 0.1% BSA as a buffer. […] The treated cells were then resuspended in a flow cytometry buffer to the cell density of 1×10⁶ cells/ml, and then added into V-bottom 96-well plates at 30 μl/well. Primary antibodies with initial concentration of 10 ug/ml were gradient diluted with the flow cytometry buffer at a three-fold ratio to form 6 gradients. […] After inoculation at 4° C. for one hour, the plates were washed once with the flow cytometry buffer. The secondary antibody (abcam, Cat #ab98593) was added at 30 μl/well. After incubation at 4° C. for 30 minutes, the plates were washed twice with the flow cytometry buffer and the cells were shaken dispersedly. The flow cytometry buffer was added at 30 μl/well, and then the cells were tested on the flow cytometer. Original data were entered into the software GraphPad8.0 for graphing and calculation.

For the next experiment, the target named is T3, Mouse CLDN18.2 (mouse, UniProt P56857 10-264).
T3 chain: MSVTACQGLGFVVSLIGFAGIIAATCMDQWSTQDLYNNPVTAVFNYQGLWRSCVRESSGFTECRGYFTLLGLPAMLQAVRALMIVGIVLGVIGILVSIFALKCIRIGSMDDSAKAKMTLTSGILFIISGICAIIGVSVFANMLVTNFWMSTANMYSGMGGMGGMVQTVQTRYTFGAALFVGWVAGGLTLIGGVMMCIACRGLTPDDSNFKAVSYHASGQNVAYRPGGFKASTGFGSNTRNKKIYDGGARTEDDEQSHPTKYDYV
The experiment can be described thus: FACS on 293T-mouse CLDN18.2 cells (FIG. 4).

Protocol for Mouse CLDN18.2: as §2

B1: Standard antibody (antibody, V domains shown)
VH: QVQLQESGPGLIKPSQTLSLTCTVSGGSISSGYNWHWIRQPPGKGLEWIGYIHYTGSTNYNPALRSRVTISVDTSKNQFSLKLSSVTAADTAIYYCARIYNGNSFPYWGQGTTVTVSS
VL: DIVMTQSPDSLAVSLGERATINCKSSQSLFNSGNQKNYLTWYQQKPGQPPKLLIYWASTRESGVPDRFSGSGSGTDFTLTISSLQAEDVAVYYCQNAYSFPYTFGGGTKLEIKR
notes: detected with anti-human IgG-Fc
B1: the binding result in the experiment with Human CLDN18.2 [1] was “binds”.

B2: 7E3 (hybridoma clone, murine CLDN18.2 antigen-binding protein) (antibody, V domains shown)
VH: EVQLQQSGPELVKPGASVKMSCKASGYTFTNYIIHWVKQKPGQGLEWIGYINPYTDGPKYNEKFKGRATLTSDKSSSTAYMEFSSLTSEDSAVYYCARLNRGNAMDYWGQGTSVTVSS
VL: DIVMTQSPSSLTVTVREKVTLSCKSSQSLLNSGNQKNYLTWYQQKPGQPPKLLIYWASTRESGVPDRFTGSGSGTDFTLTISSVQAEDLAVYYCQNVYIYPFTFGAGTKLELKR
notes: Murine monoclonal antibody tested as hybridoma culture supernatant
Take B2: the Average fluorescence intensity with Human CLDN18.2 [2] is 48200; in the experiment with Human CLDN18.2 [3] it was 84800.

B3: c14E12 (antibody, V domains shown)
VH: B2 VH with Q6E
VL: DIVMTQSPSSLSVSAGEKVTMSCKSSQSLLNNGNQKNYLAWYQQKPGQPPKLLIYGASTRESGVPDRFTGSGSGTDFALTISSVQAEDLAVYYCQNDLYYPFTFGSGTKLDIKR
On to B3, for which the binding result (in experiment [4]; with Mouse CLDN18.2) was “binds” in each case.

B4: c7E3 (antibody, V domains shown)
VH: B2 VH
VL: B2 VL
Take B4: the binding result (in experiment [4]; in the experiment with Mouse CLDN18.2) was “binds” in each case.

B5: 14E12 (hybridoma clone, murine CLDN18.2 antigen-binding protein) (antibody, V domains shown)
VH: B2 VH with Q6E
VL: B3 VL
notes: as for B2
For B5, the Average fluorescence intensity with Human CLDN18.2 [2] came to 16600; with Human CLDN18.2 [3] it was 27600.

B6: 3A6 (hybridoma clone, murine CLDN18.2 antigen-binding protein) (antibody, V domains shown)
VH: EVQLVESGGDLVQPGGSLKLSCAASGFTLSRYGMSWVRQTPDKRLEWVSTIISGGINTYYSDSVKGRFSISRDNARNTLYLQMSSLKSEDTAMYYCGRLYYGNAMDYWGQGTAVTVSS
VL: B2 VL with V15A, R16G, L21M, D76H, V97D, I99S, F102L
notes: as for B2
In the case of B6, the Average fluorescence intensity in the experiment with Human CLDN18.2 [2] came to 101000; with Human CLDN18.2 [3], 215000.

B7: c3A6 (antibody, V domains shown)
VH: B6 VH
VL: B2 VL with V15A, R16G, L21M, D76H, V97D, I99S, F102L
Regarding B7, the binding result (in experiment [4]; in the experiment with Mouse CLDN18.2) was “binds” in each case.

B8: c17B10 (antibody, V domains shown)
VH: B2 VH with Q6E
VL: B2 VL with V15A, R16G, L21M, S22N, V97D, I99S, Y100F, A106S, L112I
Take B8: the binding result (in experiment [4]; with Mouse CLDN18.2) was “binds” each time.

B9: 17B10 (hybridoma clone, murine CLDN18.2 antigen-binding protein) (antibody, V domains shown)
VH: B2 VH with Q6E
VL: B2 VL with V15A, R16G, L21M, S22N, V97D, I99S, Y100F, A106S, L112I
notes: as for B2
In the case of B9, the Average fluorescence intensity with Human CLDN18.2 [2] was 30600; with Human CLDN18.2 [3], 52100.

B10: 5E6 (hybridoma clone, murine CLDN18.2 antigen-binding protein) (antibody, V domains shown)
VH: B2 VH with I33V, I34M, H35N, T55N, P58T, K63R, R67K, Y80F, F83V, N100Y
VL: B2 VL
notes: as for B2
Regarding B10, the values for the Average fluorescence intensity in the experiment with Human CLDN18.2 [2] and with Human CLDN18.2 [3] were 108000 and 293000, respectively.

B11: c5E6 (antibody, V domains shown)
VH: B2 VH with I33V, I34M, H35N, T55N, P58T, K63R, R67K, Y80F, F83V, N100Y
VL: B2 VL
Take B11: the binding result (in experiment [4]; with Mouse CLDN18.2) was “binds” throughout.

These data come from patent US20240182562A1 (ORICELL THERAPEUTICS, published 2024).
